The target of the test is TSLP (M29-130), longer subunit of the PCSK-generated heterodimeric TSLP (human, UniProt Q969D9 29-130). The experiment in a line: MALDI-TOF MS with and without DTT.

KVTTNKCLEQVSQLQGLWRRFNRPLLKQQ (peptide, UniProt Q969D9 131-159, looked up) [TSLP (131-159), shorter subunit of the truncated thymic stromal lymphopoietin]: the binding result is listed as “binds”.

The record behind these values is publication PMC5389936 (The Journal of allergy and clinical immunology, 2016).
